This passage reports self-cleavage results from the RNAGym collection of RNA variant scans (doi:10.7554/elife.80360).

B1: HDV Ribozyme (parent)
chain: GGCCGGCAUGGUCCCAGCCUCCUCGCUGGCGCCGGCUGGGCAACAUUCCGAGGGGACCGUCCCCUCGGUAAUGGCGAAUGGGACCCA

The data set covers variants of B1. Kind of data set: self-cleavage, relative activity (ratio to wild type); higher = more cleavage; co-transcriptional.
For U20C G29C, the self-cleavage was 0.231. The value for G17A C26A was 0.798; that for U9G C26G was 0.88. Take C14U C49A: the self-cleavage turned out to be 1.37. The value for C21G U46G was 0.0978; that for C15G A71U was 0.489; that for C7G G39U was 0.

In the case of C19G U47A, the self-cleavage was determined as 0.106. For the variant U12A G73A, the self-cleavage is 0.123. C15G A43C: the self-cleavage worked out at 0.0875.

Take C15U U20C: the self-cleavage turned out to be 0. Turning to G50U U79A, the self-cleavage is 0.831. The value for G55U C75U was 0.168.

With C19G A56U, the self-cleavage is 0.0573. Turning to G10C U60G, the self-cleavage stood at 0.95.

As to U23A U46C, the self-cleavage is 0.929. The value for A42U G80U was 0.138.

For the variant G1C C41A, the self-cleavage came out at 0.123.

As to G31U G74A, the self-cleavage was 0.151. Consider G54A G82A, for which the self-cleavage worked out at 0.208.

On to G28A G52A, for which the self-cleavage stood at 0.0764. As for C58G A83U, the figure is 0.776; as for U20C G80C, 0.106; as for U37A A56C, 0.229. As for G55U U69C, the figure is 1; as for A16G U79C, 1.08; as for C14G C75G, 0.0554. Turning to C3U G80C, the self-cleavage amounted to 0.159.

Regarding C57A C66A, the self-cleavage was 1.18.

Consider G28U G34U, for which the self-cleavage stood at 0.117.

As to U27A U72G, the self-cleavage amounted to 0.739. Consider U27A U72A, for which the self-cleavage turned out to be 0.266. As for C19G A70G, the figure is 0.104; as for A43G A51C, 0.745; as for C36A U37G, 0.256. As for C13A C24A, the figure is 0; as for G6A C13A, 0.185; as for C30G A87G, 0.0702. Turning to C4G G81U, the self-cleavage was found to be 0.0554. As for G50U A70C, the self-cleavage came to 0.795. The value for A16G was 1.07; that for C18U C30A was 0.156. As to G29U G50C, the self-cleavage is 0.153. The value for G11U G17U was 0.308; that for C7G C64G was 0.111; that for G54C G55U was 1.05. With C15G U27A, the self-cleavage came out at 0.431. The value for C33U G55A was 0.972; that for G10C C44A was 0.615; that for C41U A77U was 0.475. As to U9C C48G, the self-cleavage was found to be 1.44.

For the variant C4A U23C, the self-cleavage was determined as 0.0978. With G11C C33A, the self-cleavage was found to be 0.0346. In the case of G25C U79A, the self-cleavage turned out to be 0.0615. As for G28A U65A, the self-cleavage was 0.0755. Regarding G54C U69A, the self-cleavage was determined as 0.945. On to C48A G74A, for which the self-cleavage turned out to be 0.7. On to G11U C61U, for which the self-cleavage came out at 0.443.

On to G68C A83G, for which the self-cleavage came out at 0.356. With U37G G68A, the self-cleavage is 0.246. As for G25A A83G, the figure is 0.151; as for G11C C15U, 0.0554. Consider G29U A83C, for which the self-cleavage amounted to 0.0692. In the case of C15A G34A, the self-cleavage came out at 0.0723.

For G81A A87C, the self-cleavage stood at 0.455. For the variant C7U C57A, the self-cleavage amounted to 0.979. Regarding C13A A42C, the self-cleavage stood at 0.0594. G35C C48G: the self-cleavage was 0.485. In the case of G35A C61G, the self-cleavage was 0.465. Regarding G6C G40U, the self-cleavage was 0.0536.

For C32G C61A, the self-cleavage is 0.121. As to G10A G68U, the self-cleavage is 0.562.

G38C U79A: the self-cleavage is 0.151. For G52U A77G, the self-cleavage was found to be 0.647. As to G39C A45C, the self-cleavage amounted to 0.198. With G6A A56U, the self-cleavage is 0.601. As for U79G G81A, the figure is 0.146; as for U20G C32A, 0; as for G55U G82C, 0.233. For the variant C19U G38C, the self-cleavage was 0.0875.

Consider A51U A83U, for which the self-cleavage came to 0.712.

On to C18G C41A, for which the self-cleavage was found to be 0.196.

Take G17U G38A: the self-cleavage was 0.0755. The value for U37A G38A was 0.086.

For U60C G67A, the self-cleavage was 0.776.

Regarding C24A C66G, the self-cleavage stood at 0.731.

For G5A C7U, the self-cleavage was found to be 0.0978.

On to U23G U47C, for which the self-cleavage turned out to be 0.332. Regarding A70U G80C, the self-cleavage was 0.213. The value for G1A A8C was 0.

Consider G68A C84A, for which the self-cleavage is 0.817. The value for G76U G82C was 0.277; that for C13G G35C was 0.0536; that for C41A C63A was 0.969. Regarding C30A G73A, the self-cleavage worked out at 0.237.

For the variant A51U G73U, the self-cleavage was 0.504. Take U47A A51C: the self-cleavage stood at 1.13. A16C C86U: the self-cleavage stood at 0.739.

For the variant C41G C48A, the self-cleavage was 1.12. For G11A C30G, the self-cleavage was determined as 0.0225. Turning to C24U U79G, the self-cleavage was found to be 0.244.

As for C15U A45G, the self-cleavage was 0.8. In the case of C48G U79C, the self-cleavage was 0.345. Turning to G55A C58U, the self-cleavage is 1.07. Regarding C14A U23G, the self-cleavage worked out at 0.222. For the variant G40U U60A, the self-cleavage was 0.795. On to G2C C19G, for which the self-cleavage stood at 0.102.

Consider G34C C66U, for which the self-cleavage is 0.266. Turning to G25U G39A, the self-cleavage is 0.0963. As to G11C C64U, the self-cleavage came out at 0.269. Regarding C24A C44U, the self-cleavage stood at 0.0831. In the case of U9A G29A, the self-cleavage was 0.0678. C4U C48A: the self-cleavage worked out at 0.706. As to U9C C58A, the self-cleavage is 1.11. Regarding C7U U20C, the self-cleavage stood at 0. As for C33G A87U, the self-cleavage worked out at 0.151.

As to C33G G55C, the self-cleavage stood at 0.158. Consider C48G A77C, for which the self-cleavage is 0.323.

C66A C85A: the self-cleavage came to 0.939. The value for C3A C64U was 0.65. In the case of C49A G59U, the self-cleavage was found to be 0.945. Turning to G67A U69A, the self-cleavage was determined as 1. The value for U12A A43G was 0.0831. Take A16C G35A: the self-cleavage is 0.175. Regarding U65A C86U, the self-cleavage was found to be 0.937. Regarding G11C G39A, the self-cleavage was determined as 0.264. Turning to C32U A83U, the self-cleavage was 0.456. Turning to C22U G34C, the self-cleavage came to 0.0852. The value for U20G G67A was 0.156; that for G73C C85A was 0.231; that for C15A C32A was 0.151.

With G39A C57A, the self-cleavage was determined as 0.41. Turning to G40C C64G, the self-cleavage is 0.242. With C13A C85G, the self-cleavage is 0.0396. The value for U12G G35C was 0.151; that for C15U A42G was 0.246; that for G54U U72A was 0.614. A43U C66G: the self-cleavage amounted to 0.47. The value for C30U C32A was 0.155; that for C32G C33G was 0.0906. The value for G10C G82A was 0.314. As for G50C G67U, the figure is 0.795. Turning to G50C G67A, the self-cleavage was found to be 0.565. With C24G C66U, the self-cleavage worked out at 0.166.

Turning to U60A G82U, the self-cleavage is 0.35.

Consider G55U A71G, for which the self-cleavage was found to be 1.04. As to C13U A43G, the self-cleavage worked out at 0.525. As to G38U C64A, the self-cleavage turned out to be 0.257.

For A51G C84G, the self-cleavage was determined as 0.332. As to C4G G68A, the self-cleavage turned out to be 0.309. Consider A70C C86G, for which the self-cleavage was 1.35. With A43C G74U, the self-cleavage is 0.415.

Take C32A G76U: the self-cleavage stood at 0.302. As for C13G G50A, the figure is 0.131; as for A42U G59A, 0.845; as for C22G C57A, 0.0652.

In the case of U37C C58U, the self-cleavage amounted to 0.997. The value for A70U U79C was 0.277; that for C7A C58G was 0.705; that for G73A U79A was 0.231. In the case of G54U U65C, the self-cleavage came out at 0.969. Take C4G C14U: the self-cleavage is 0.462.

For U27A U79C, the self-cleavage amounted to 0.201. Turning to G1U C62A, the self-cleavage is 0.248. For the variant A78U A83U, the self-cleavage was 0.269.

Take A56U C86U: the self-cleavage turned out to be 0.906. For U46C A77U, the self-cleavage amounted to 0.104.
